Consider 15 molecules from US20210070872A1 (AGENUS, published 2021).

In this experiment the target is T1, biotinylated GITR (human, UniProt Q9Y5U5 26-161, limits assumed, biotinylated (sites not given)).
T1 construct: also called GITR-bio; Biotin-GITR
T1 sequence: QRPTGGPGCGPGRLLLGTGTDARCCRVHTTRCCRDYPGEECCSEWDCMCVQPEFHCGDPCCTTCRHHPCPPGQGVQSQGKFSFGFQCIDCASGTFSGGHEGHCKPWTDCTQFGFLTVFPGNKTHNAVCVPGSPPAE
In words: BLI (Octet), biotin-GITR on streptavidin tips, antibody supernatant. The procedure:
Several hundred germlined antibodies were selected based on binding kinetics as determined by Octet measurements (Octet RED 96 system; ForteBio™ Inc., Menlo Park, Calif.). The experimental procedure was configured according to the instruction manual of the instrument. Biotin-GITR was bound to Streptavidin biosensor (SA) and PBS (pH 7.4) was used as a blank control. Briefly, the interaction analyses were conducted at 30° C. in running buffer (PBS, 0.05% Tween, pH7.4). Sensor tips were pre-wet for 10 minutes in running buffer immediately prior to use, and the micro plates used in the Octet were filled with 200 μl of sample or buffer per well and agitated at 800 rpm. For the experiments, commercially available precoated SA tips were used. Biotinylated GITR was loaded onto the ForteBio SA fibers in PBS pH7.4 for 10 minutes and washed for 4 minutes. For the association phase, the ligand-coated SA tips were immersed for 5 minutes in cell culture supernatant that was diluted 1:10 in running buffer prior to the measurement. Dissociation of the antibody-antigen complex was measured in wells containing the Octet buffer alone for 5 minutes. After each run, the tips were regenerated with Glycine (10 mM, pH 2.0). Affinity, Kₒₙ and Koff were determined with Octet evaluation software v6.3 using a 1:1 binding model with local full fitting.
A general note: Biolayer interferometry detects binding as a change in optical thickness at a sensor tip.

Substitutions are numbered along the chain they refer to.

B1: germline variant antibody 61 (H1917A02 / K1917A02) (antibody, V domains shown)
VH: QVQLVQSGTEVKKPGASVKVSCKASGYTFTEYAMHWVRQAPGQGLEWMGLIRTYSGGVSYNQKFQERVTMTVDKSISTAYMELSRLRSDDTAVYYCAKSGTVRGFAYWGQGTLVTVSS
VL: DIVMTQSPDSLAVSLGERATINCKSSQSLLNSGNQKNYLSWYQQKPGQPPKLLIYWASTRESGVPDRFSGSGSGTDFTLTISSVQAEDVAVYYCQNDYSFPYTFGQGTKLEIK
notes: IGHG1/IGKC expression vectors; measured from CHO culture supernatant; also called Antibody ID 61
In turn, B1 returned a Kd of 1.83 nM, a koff of 0.00141 s⁻¹ and a kon of 772000 M⁻¹ s⁻¹.

B2: germline variant antibody 105 (H1917H07 / K1917H07) (antibody, V domains shown)
VH: B1 VH with T9A, A24G, H35Y, Y54F, Q65K, E66G, K74T
VL: B1 VL with F100Y
notes: IGHG1/IGKC expression vectors; measured from CHO culture supernatant
Molecule B2 displayed a Kd of 1.38 nM, an off-rate constant (koff) of 0.000486 s⁻¹ and a kon of 351000 M⁻¹ s⁻¹.

B3: germline variant antibody 68 (H1917B01 / K1917B01) (antibody, V domains shown)
VH: B1 VH with A24G, E31G, H35Y, M48I, S59T, Q65R, E66G, K74T
VL: B1 VL with S40T, L52M, S69T, V84L, F100Y
notes: IGHG1/IGKC expression vectors; measured from CHO culture supernatant; also called Antibody ID 68
The molecule B3 gave a Kd of 1.55 nM, a koff of 0.000447 s⁻¹ and a kon of 289000 M⁻¹ s⁻¹.

B4: germline variant antibody 107 (H1917H09 / K1917H09) (antibody, V domains shown)
VH: B1 VH with T9A, A24G, E31G, H35Y, L50V, G57D, Q65R, E66D, K74T
VL: B1 VL with Q43H, S69T, F100Y
notes: as for B2
In turn, B4 gave a Kd of 2.21 nM, a koff of 0.000657 s⁻¹ and a kon of 298000 M⁻¹ s⁻¹.

B5: germline variant antibody 101 (H1917H01 / K1917H01) (antibody, V domains shown)
VH: B1 VH with T9A, E31D, Y54F, E66D
VL: B1 VL with G33S, S40T, Q43H, Y93H
notes: as for B2
In turn, B5 yielded a Kd of 0.354 nM, a koff of 0.000332 s⁻¹ and a kon of 936000 M⁻¹ s⁻¹.

B6: germline variant antibody 79 (H1917D04 / K1917D04) (antibody, V domains shown)
VH: B1 VH with A24G, L45M, S59T, Q65R
VL: B1 VL with S40T, Q43H, L52M, V84L, F100Y
notes: IGHG1/IGKC expression vectors; measured from CHO culture supernatant; also called Antibody ID 79
B6 yielded a Kd of 2.87 nM, an off-rate constant (koff) of 0.00129 s⁻¹ and a kon of 450000 M⁻¹ s⁻¹.

B7: germline variant antibody 76 (H1917C10 / K1917C10) (antibody, V domains shown)
VH: B1 VH with T9A, E10G, A24G, E31D, Y54F, G57D, Q65R, V68A
VL: B1 VL with L52M, Y93H
notes: IGHG1/IGKC expression vectors; measured from CHO culture supernatant; also called Antibody ID 76
In turn, B7 yielded a Kd of 2.72 nM, a koff of 0.00105 s⁻¹ and an association rate constant (kon) of 386000 M⁻¹ s⁻¹.

B8: germline variant antibody 85 (H1917E02 / K1917E02) (antibody, V domains shown)
VH: B1 VH with T9A, H35Y, L50V, S59T, Q65K, E66D, V68A, K74T
VL: B1 VL with G33S, Q43H, F100Y
notes: IGHG1/IGKC expression vectors; measured from CHO culture supernatant; also called Antibody ID 85
B8 gave a Kd of 1.28 nM, a koff of 0.00037 s⁻¹ and an association rate constant (kon) of 289000 M⁻¹ s⁻¹.

B9: germline variant antibody 91 (H1917F03 / K1917F03) (antibody, V domains shown)
VH: B1 VH with A24G, L45M, V68A, K74T
VL: B1 VL with Y93H, D97E
notes: IGHG1/IGKC expression vectors; measured from CHO culture supernatant; also called Antibody ID 91
B9 returned a Kd of 3.07 nM, a koff of 0.00159 s⁻¹ and a kon of 520000 M⁻¹ s⁻¹.

B10: germline variant antibody 75 (H1917C09 / K1917C09) (antibody, V domains shown)
VH: B1 VH with A24G, E31G, H35Y, M48I, L50V, S59T, E66G
VL: B1 VL with Q43H, S69T, V84L, F100Y
notes: IGHG1/IGKC expression vectors; measured from CHO culture supernatant; also called Antibody ID 75
The molecule B10 came in with a Kd of 2.92 nM, a koff of 0.000925 s⁻¹ and a kon of 317000 M⁻¹ s⁻¹.

B11: germline variant antibody 95 (H1917G05 / K1917G05) (antibody, V domains shown)
VH: B1 VH with T9A, A24G, E31D, H35Y, Q65R, E66G, K74T, L113F
VL: B1 VL with S40T, L52M, Y93H
notes: IGHG1/IGKC expression vectors; measured from CHO culture supernatant; also called Antibody ID 95
B11 came in with a Kd of 2.21 nM, a koff of 0.000672 s⁻¹ and a kon of 305000 M⁻¹ s⁻¹.

B12: germline variant antibody 59 (H1916G05 / K1916G05) (antibody, V domains shown)
VH: B1 VH with T9A, H35Y, Q65R, E66D
VL: B1 VL with G33S, Q43H, Y93H, F100Y
notes: IGHG1/IGKC expression vectors; measured from CHO culture supernatant; also called Antibody ID 59
B12 returned a Kd of 1.04 nM, a koff of 0.000312 s⁻¹ and a kon of 299000 M⁻¹ s⁻¹.

B13: germline variant antibody 92 (H1917F05 / K1917F05) (antibody, V domains shown)
VH: B1 VH with T9A, A24G, H35Y, Y54F, S59T, E66G, V68A, K74T, R87Q
VL: B1 VL with S40T, Q43H, L52M, D76N, Y93H, F100Y
notes: IGHG1/IGKC expression vectors; measured from CHO culture supernatant; also called Antibody ID 92
In the case of B13, binding was characterised by a dissociation constant (Kd) of 1.01 nM, the koff worked out at 0.000361 s⁻¹ and the kon stood at 357000 M⁻¹ s⁻¹.

B14: germline variant antibody 86 (H1917E03 / K1917E03) (antibody, V domains shown)
VH: B1 VH with T9A, A24G, H35Y, L45M, L50V, S59T, Q65R, E66D, V68A, K74T
VL: B1 VL with S40T, Q43H, F100Y
notes: IGHG1/IGKC expression vectors; measured from CHO culture supernatant; also called Antibody ID 86
For B14, the Kd worked out at 0.75 nM, the koff was determined as 0.000432 s⁻¹ and the kon amounted to 577000 M⁻¹ s⁻¹.

B15: germline variant antibody 96 (H1917G06 / K1917G06) (antibody, V domains shown)
VH: B1 VH with T9A, A24G, H35Y, L45M, L50V, V58L, S59T, Q65R, E66D, K74T
VL: B1 VL with G33S, Q43H, V84L, Y93H, F100Y
notes: IGHG1/IGKC expression vectors; measured from CHO culture supernatant; also called Antibody ID 96
Take B15: binding was put at a Kd of 1.09 nM, the koff is 0.000373 s⁻¹ and the kon worked out at 344000 M⁻¹ s⁻¹.

As usually defined, the Kd is the free concentration of one partner at which half of the binding sites on the other are occupied at equilibrium, for simple one-to-one binding. A higher Kd goes with a looser complex. Broadly, the koff is the first-order rate constant of dissociation. Lower therefore signals slow dissociation. A word on the kon: it is a measure of how fast the partners come together.
